This assay deals with AVPR1a (Homo sapiens, UniProt P37288). The assay can be described thus: 125I-OVTA competition binding, intact CHO cells.

No end group written: not given here.

Chain of AVPR1a (P37288 whole entry): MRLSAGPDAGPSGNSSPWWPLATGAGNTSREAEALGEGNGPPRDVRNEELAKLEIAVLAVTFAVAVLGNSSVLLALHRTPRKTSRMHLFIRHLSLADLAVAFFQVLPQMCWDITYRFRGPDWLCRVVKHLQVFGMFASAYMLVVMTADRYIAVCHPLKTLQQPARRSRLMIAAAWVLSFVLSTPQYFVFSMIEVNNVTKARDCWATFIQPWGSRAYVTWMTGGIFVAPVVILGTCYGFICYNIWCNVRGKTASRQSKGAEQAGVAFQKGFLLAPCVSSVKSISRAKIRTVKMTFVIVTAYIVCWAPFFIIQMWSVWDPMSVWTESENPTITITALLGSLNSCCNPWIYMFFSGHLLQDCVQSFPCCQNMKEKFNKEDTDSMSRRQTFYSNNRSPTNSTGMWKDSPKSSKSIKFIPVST

As a reminder, the Ki is the dissociation constant of the complex between target and ligand, obtained from inhibition or displacement. Lower therefore signals higher affinity. Take CYIQNCPPG (not fully specified; cysteine pairing not given here) [Pro8-OXT]: the Ki stood at 8.71 nM.

Source of the values: article PMC6820730 (2019).
